Results taken from article PMC9205905, “Core and rod structures of a thermophilic cyanobacterial light-harvesting phycobilisome” (Nature Communications, 2022).

Target: the molecule itself
Test: cryo-EM structure; PC rods dissociated from intact PBSs on the grid by dilution with 10 mM phosphate buffer (phosphate below 0.5 M); single-particle cryo-EM, no symmetry, 4.2 Å

B1: PC monomer (CpcA/CpcB αβ monomer) (complex)
chain 1: not shown
chain 2: MLDAFAKVVAQADARGEFLTNAQFDALSNLVKEGNKRLDAVNRITSNASTIVANAARALFAEQPQLIQPGGNAYTNRRMAACLRDMEIILRYVTYAILAGDSSVLDDRCLNGLRETYQALGTPGSSVAVAIQKMKDAAIAIANDPNGITPGDCSALMSEIAGYFDRAAAAVA
modifications: phycocyanobilin (PCB) at residue 84 (α84) | phycocyanobilin (PCB) at residues 84 and 155 (β84, β155)
stoichiometry N: 6
